Experimental data reported in patent US12697402B2, “Detection of colonic neoplasia in vivo using near-infrared peptide targeted against overexpressed cMet” (THE REGENTS OF THE UNIVERSITY OF MICHIGAN, priority 2019, dated 2026).
Entries after “also recorded” stand apart in the source; their conditions may differ. Ends that are not written are not given here.

Columns and labels:
mouse cMet-ECD = biological target: T1, mouse cMet-ECD (Mus musculus, UniProt P16056); experiment: Pull-down assay; type: binding; settings: peptide immobilized on EHS beads
T1 construct: incubated with purified mouse cMet-ECD protein (50622-M08H, Sino Biological); purchased Sino Biological 50622-M08H
Description: Interactions between peptide and mouse cMet were evaluated using a pull-down assay (Paul et al., Methods 54:387-395 (2011)). Peptides were immobilized on EHS active beads (17-0906-01, GE), and incubated with purified mouse cMet-ECD protein (50622-M08H, Sino Biological). After washing, bound proteins were detected by Western blot (FIG. 18).

cMet (HT29 cells) [1] = biological target: T2, cMet (HT29 cells) (Homo sapiens, UniProt P08581); experiment: Competition for peptide binding with unlabeled peptides; set-up: endogenous in cells; host or cells: HT29 (cMet+), SW480 (cMet-), HT29 with siRNA knockdown; settings: unlabeled peptide 0-400 μM, 5 μM QQT*-Cy5.5
Description: (§1) We used a competition assay between labeled QQT*-Cy5.5 and either unlabeled QQT* or recombinant human hepatocyte growth factor (HGF, […], R&D) to validate the specific binding of QQT**-Cy5.5 to HT29 cells. Approximately 10^3 HT29 cells were grown to about 70% confluence on coverslips in triplicate. Unlabeled QQT* and either TLQ* peptide at 0, 25, 50, 100, 200 and 400 μM, or HGF at 0, 5, 10, 25, 50 or 100 ng/mL, were first added and incubated with the cells for 30 min (i.e., minutes) at 4° C. The cells were washed with 1×PBS three times and then incubated with 5 μM QQT*-Cy5.5 for another 30 min at 4° C. The cells were washed three times with 1×PBS and then fixed with 4% PFA for 10 min. The cells were washed with 1×PBS and mounted with ProLong Gold reagent containing DAPI (Invitrogen). Confocal fluorescence images were collected at each concentration using a 63× objective (Leica SP5 Inverted 2-Photon FLIM Confocal), and intensities from five cells in three independent images were quantified using custom Matlab (Mathworks, Natick, MA) software.

cMet (HT29 cells) [2] = biological target: T2, cMet (HT29 cells); experiment: Competition for peptide binding with HGF; set-up: endogenous in cells; host or cells: HT29 (cMet+), SW480 (cMet-), HT29 with siRNA knockdown; settings: HGF 0 to 100 ng/mL; confocal microscopy
Description: as §1

[3] = test system: phosphorylation of cMet, AKT and ERK1/2; experiment: Effect of peptide on cell signaling (Western blot); type: cell-based, human; settings: HT29 cells; 10, 30, 120 min; HGF 25 ng/mL; peptide 5 or 100 μM
Description: HT29 cells were treated with serum-free medium overnight for starvation before incubation with hHGF (hHGF, 294-HG-005, R&D) or peptides. Recombinant Human HGF Protein was added to HT29 cells at concentrations of 25 ng/ml for 10, 30, or 120 min in separate wells. QQT*-Cy5.5 and TLQ*-Cy5.5 were added at concentrations of 5 or 100 μM for 10, 30, and 120 min. Peptides were added at concentrations of 5 and 100 μM for 10, 30, or 120 min. Cells were then washed with 1×PBS and lysed with Pierce RIPA buffer containing Halt Phosphatase Inhibitor Cocktail (Thermo Fisher) and Halt Protease Inhibitor Cocktail (Thermo Fisher). Protein contents were quantified by Bicinchoninic Acid Assay (BCA). Anti-cMet antibody (Cell Signaling, #8198), phospho-cMet (Tyr1234/1235) antibody (Cell Signaling, #3077), anti-AKT antibody (Cell Signaling, #4691), anti-phospho-AKT antibody (Cell Signaling, #9271), anti-ERK1/2 antibody (Abcam, #ab17942), anti-phospho-ERK1/2 antibody (Abcam, #ab50011), and anti-tubulin antibody (Invitrogen, #32-2600) were used per manufacturer's instructions.

[4] = test system: flat and polyploid colonic adenomas; experiment: In vivo endoscopic imaging in CPC;Apc mice; settings: CPC;Apc mouse; topical / intra-rectal, 100 μM, 5 min incubation
Description: A CPC;Apc mouse model that can develop spontaneous adenomas in distal colon epithelium^44 was also used. Under the control of the Cdx2 promoter (CDX2P-9.5NLS-Cre), Cre recombinase can sporadically delete the adenomatous polyposis coli (APC) allele, resulting in polyploid colonic adenomas or flat lesions. We collected images from mice (n=8) that ranged in age from 7 to 10 months.
In vivo imaging was performed with approval of the University of Michigan Committee on the Use and Care of Animals. CPC;Apc mice were used for in vivo imaging. […]
(§2) A rigid small animal endoscope (Karl Sorz Veterinary Endoscopy) was inserted into the rectum (Liu et al., Gut 62:395-403 (2013)) and used to image the distal colon^45. […] The distance between the endoscope tip and the anus, and the clockwise location of polyps, were recorded. […] A ratio of the fluorescence and reflectance images was determined to correct for differences in distance and geometry over the image field-of-view (FOV) (Joshi et al., Endoscopy 48:A1-A13 (2016)). […]
The mean fluorescence intensity was used to calculate the target-to-background (T/B) ratios. Images were processed and analyzed using custom software in Matlab (Mathworks) (Joshi et al., Gastroenterology 152:1002-1013 e1009 (2017)). Matlab software was used to quantify the fluorescence intensity. […]

[5] = test system: human colon organoids (adenoma, SSA, normal); experiment: In vivo endoscopic imaging of patient-derived colon organoids implanted in NOD/SCID mice; settings: NOD/SCID mouse; topical administration
Description: Acute colitis was induced in 8-week-old NOD.Cg-Prkdcscid Il2rgtm1Wjl/SzJ mice (005557, The Jackson Laboratory)^40,41 by feeding them with 3.0% DSS (molecular weight 40,000; Cat #AAJ6360622; Alfa Aesar) dissolved in drinking water for 5 days (d). At 6 d, the donor organoids were released from the type I collagen gel, dissociated by EDTA, and washed with BSA-containing PBS as with the passage procedure. Approximately 2.5-5E5 cell aggregates in 200 μL were transplanted per mouse as previously described^42,43. Organoids were instilled into colonic lumen as a suspension by using a syringe and a thin flexible catheter 4 cm in length and 2 mm in diameter. The anal verge was glued for 6 hours after infusion to prevent luminal contents from being excreted immediately, then glue were removed by Ethanol. Mice were maintained as usual after the transplantation. The mice were housed in pathogen-free conditions and supplied water ad libitum under controlled conditions of humidity (50±10%), light (12/12 hour light/dark cycle) and temperature (25° C.). […]
as §2
The mean fluorescence intensity was used to calculate the target-to-background (T/B) ratios. Images were processed and analyzed using custom software in Matlab (Mathworks) (Joshi et al., Gastroenterology 152:1002-1013 e1009 (2017)). Matlab software was used to quantify the fluorescence intensity. The fluorescence intensity of regions of interest (ROI) was corrected by taking the ratio of fluorescence to reflectance, the fluorescence of interested region was taken as target (T), and adjacent mouse normal colon region with equal area was picked for use as background (B)^46. […]

cMet [6] = biological target: T3, cMet (Homo sapiens, UniProt P08581); experiment: Confocal microscopy of binding to HT29 (cMet+) versus SW480 (cMet−) cells; type: cell-based
Description: (§3) HT29, SW480, S114 and NIH3T3 cells were inoculated in 12-well cell culture plates with circle glass coverslips to about 80% confluence. The cells were blocked with 1×PBS plus 2% BSA for 1 hour at 4° C., then were incubated with 5 μM peptides for 10 min at RT in the dark, washed thrice, and fixed with 4% PFA for 5 min, washed with 1×PBS, then mounted on glass slides with ProLong Gold reagent containing DAPI (Invitrogen, Waltham, MA). As positive control, after blocking with 2% BSA for 1 hour at 4° C., A 1:3000 dilution of primary monoclonal rabbit anti-cMet antibody (Cell Signaling Technology, #8198) was incubated with cells overnight at 4° C. Afterward, the cells were washed thrice with 1×PBS and further incubated with a 1:500 dilution of AF488-labeled secondary goat ant-rabbit immunoglobulin G antibody (Life Technologies, #A-11029) for 1 hour at RT, washed thrice, and then mounted on glass slides with ProLong Gold reagent containing DAPI. Confocal fluorescence images were collected using a 63× oil-immersion objective (Leica SP5 Inverted 2-Photon FLIM Confocal). Fluorescence intensities from five cells in two independent images were quantified using custom Matlab (Mathworks) software.

cMet [7] = biological target: T3, cMet; experiment: siRNA knockdown of cMet in HT29 cells, binding by confocal microscopy; type: cell-based
Description: as §3
We knocked down cMet protein levels with siRNAs and then evaluated the binding of QQT*-Cy5.5 and TLQ*-Cy5.5 to the surface of si-cMet-transfected HT29 cells to validate specific peptide binding. We used siRNA1 (SASI_Hs01_00133002, Sigma) for HT29, siRNA2 (SASI_WI_00000001, Sigma) for S114, and MISSION® siRNA #1 Universal Negative Control (SIC001, Sigma) for a negative control. We transfected cells with Lipofectamine 2000 (11668027, Invitrogen) per manufacturer instructions. Knockdown of cMet was confirmed by Western blot (FIG. 18). The cells were incubated with 5 μM peptide for 5 min at RT (i.e., room temperature), and then fixed and mounted on glass slides with ProLong Gold reagent containing DAPI, as previous described. […] Confocal fluorescence images were collected using a 63× oil-immersion objective (Leica SP5 Inverted 2-Photon FLIM Confocal).

cMet [8] = biological target: T3, cMet; experiment: Confocal microscopy of binding to S114 (cMet+) versus NIH3T3 (cMet−) cells; type: cell-based, mouse; set-up: expressed in transfected cells; host or cells: S114 (NIH 3T3 mouse fibroblasts transformed with human HGF/SF and Met); NIH3T3 as cMet- control; settings: 5 μM peptide
Source text: Human CRC cell lines HT29, SW480, CCD841 and mouse embryonic fibroblast cell line NIH 3T3 were obtained from the American Type Culture Collection (ATCC, Manassas, VA). The S114 cell line comprised NIH 3T3 cells transformed with human HGF/SF and Met and expressed cMet. We used McCoy's 5A Medium (Gibco) for culturing HT29 cells and Dulbecco's Modified Eagle Medium (Gibco) was used to culture SW480, NIH3T3 and S114 cells. Eagle's Minimum Essential Medium (Lonza) was used for CCD841 cells. All cells were cultured at 37° C. in 5% CO2, and supplemented with 10% fetal bovine serum (FBS). The cells were passaged using 0.25% trypsin containing EDTA (Mediatech, Manassas, VA). Cell numbers were quantitated on a hemocytometer. Peptide synthesis reagents were obtained from Anaspec (Anaspec, Fremont, CA) or AAPPTEC (AAPPTEC, Louisville, KY), were of the highest grade available (>99% purity), and were used without further purification. […]
HT29, SW480, S114 and NIH3T3 cells were inoculated in 12-well cell culture plates with circle glass coverslips to about 80% confluence. […] Confocal fluorescence images were collected using a 63× oil-immersion objective (Leica SP5 Inverted 2-Photon FLIM Confocal). Fluorescence intensities from five cells in two independent images were quantified using custom Matlab (Mathworks) software.

[9] = confocal microscopy, 5 μM peptide

T3 sequence (P08581 25-1390): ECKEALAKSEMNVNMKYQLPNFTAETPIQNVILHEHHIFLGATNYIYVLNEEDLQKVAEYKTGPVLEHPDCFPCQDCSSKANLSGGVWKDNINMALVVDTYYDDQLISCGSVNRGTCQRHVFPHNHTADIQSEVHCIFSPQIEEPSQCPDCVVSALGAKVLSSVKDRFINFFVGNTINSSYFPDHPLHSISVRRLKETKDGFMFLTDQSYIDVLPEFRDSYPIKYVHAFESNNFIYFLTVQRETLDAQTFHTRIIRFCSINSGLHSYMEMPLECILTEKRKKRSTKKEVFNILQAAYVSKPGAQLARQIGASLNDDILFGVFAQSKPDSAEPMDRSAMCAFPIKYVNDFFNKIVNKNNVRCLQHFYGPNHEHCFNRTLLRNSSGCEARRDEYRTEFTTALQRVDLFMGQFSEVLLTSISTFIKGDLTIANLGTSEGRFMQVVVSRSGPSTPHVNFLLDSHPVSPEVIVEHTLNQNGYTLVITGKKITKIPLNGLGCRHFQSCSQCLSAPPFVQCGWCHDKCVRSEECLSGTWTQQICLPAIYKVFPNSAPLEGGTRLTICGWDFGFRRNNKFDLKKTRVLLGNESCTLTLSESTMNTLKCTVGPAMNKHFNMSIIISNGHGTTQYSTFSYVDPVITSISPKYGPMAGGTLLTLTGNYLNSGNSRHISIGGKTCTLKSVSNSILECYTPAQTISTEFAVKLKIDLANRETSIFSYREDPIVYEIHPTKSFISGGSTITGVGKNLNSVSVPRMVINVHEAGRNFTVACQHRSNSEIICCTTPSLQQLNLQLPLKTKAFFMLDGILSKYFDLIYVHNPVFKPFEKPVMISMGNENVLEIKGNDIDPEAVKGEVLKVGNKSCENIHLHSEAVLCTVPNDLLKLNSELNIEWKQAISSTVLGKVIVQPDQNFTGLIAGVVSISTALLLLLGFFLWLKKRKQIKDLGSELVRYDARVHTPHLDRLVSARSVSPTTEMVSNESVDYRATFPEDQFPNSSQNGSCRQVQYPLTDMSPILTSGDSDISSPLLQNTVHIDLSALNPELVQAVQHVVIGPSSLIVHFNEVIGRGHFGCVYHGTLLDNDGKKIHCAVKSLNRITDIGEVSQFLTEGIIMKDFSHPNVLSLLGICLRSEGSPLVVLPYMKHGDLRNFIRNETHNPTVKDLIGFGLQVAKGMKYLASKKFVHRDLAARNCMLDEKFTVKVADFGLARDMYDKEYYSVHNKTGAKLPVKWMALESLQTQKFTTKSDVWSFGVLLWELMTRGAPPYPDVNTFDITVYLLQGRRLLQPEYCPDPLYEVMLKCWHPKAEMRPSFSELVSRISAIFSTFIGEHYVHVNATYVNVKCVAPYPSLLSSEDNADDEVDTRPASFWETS
T2 sequence (P08581 25-1390): as above
T1 sequence (P16056 25-931 limits assumed): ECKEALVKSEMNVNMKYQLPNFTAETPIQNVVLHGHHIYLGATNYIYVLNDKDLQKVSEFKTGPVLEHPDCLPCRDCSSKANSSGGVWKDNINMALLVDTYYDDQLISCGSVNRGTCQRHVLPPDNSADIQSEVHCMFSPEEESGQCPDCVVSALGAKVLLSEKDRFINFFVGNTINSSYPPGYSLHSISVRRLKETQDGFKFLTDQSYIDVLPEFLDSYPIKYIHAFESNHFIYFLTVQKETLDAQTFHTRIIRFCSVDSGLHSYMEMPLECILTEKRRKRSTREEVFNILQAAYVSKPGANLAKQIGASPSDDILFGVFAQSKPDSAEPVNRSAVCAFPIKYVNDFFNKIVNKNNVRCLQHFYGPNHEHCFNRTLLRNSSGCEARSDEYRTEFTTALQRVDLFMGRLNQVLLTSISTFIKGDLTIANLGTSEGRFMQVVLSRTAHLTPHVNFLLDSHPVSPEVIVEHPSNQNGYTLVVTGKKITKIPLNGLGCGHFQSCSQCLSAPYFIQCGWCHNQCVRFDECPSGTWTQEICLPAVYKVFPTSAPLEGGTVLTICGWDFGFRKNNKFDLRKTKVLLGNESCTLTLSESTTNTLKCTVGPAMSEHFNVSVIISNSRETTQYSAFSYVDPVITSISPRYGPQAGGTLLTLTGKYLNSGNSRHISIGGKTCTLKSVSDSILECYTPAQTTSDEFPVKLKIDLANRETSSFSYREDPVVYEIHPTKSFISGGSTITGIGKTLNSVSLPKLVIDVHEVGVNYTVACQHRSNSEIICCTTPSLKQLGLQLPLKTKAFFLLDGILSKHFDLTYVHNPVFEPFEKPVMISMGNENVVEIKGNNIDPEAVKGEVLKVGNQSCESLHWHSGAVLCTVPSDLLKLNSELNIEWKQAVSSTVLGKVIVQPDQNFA

Substance | binding to mouse cMet-ECD, Western blot band (mouse cMet-ECD) | change of QQT*-Cy5.5 fluorescence intensity on addition of unlabeled peptide (cMet (HT29 cells) [1]) | change of binding to HT29 cells with addition of HGF (cMet (HT29 cells) [2]) | phosphorylation of cMet and downstream AKT and ERK1/2 [3] | NIR fluorescence image of flat lesion [4] | NIR fluorescence image of polyp [4] | fluorescence signal from human SSA organoid in vivo [5] | fluorescence signal from human adenoma organoid in vivo [5] | fluorescence signal from human normal organoid in vivo [5] | mean intensity HT29 versus SW480 cells (cMet [6]) [fold change] | binding to surface of HT29 cells (cMet+) (cMet [6]; [9]) | signal / binding to SW480 cells (cMet−) (cMet [6]; [9]) | intensity reduction with knockdown of cMet (cMet [7]; HT29 siCL versus sicMet) [fold] | binding to surface of control HT29 cells (cMet [7]; HT29 transfected with siCL non-targeting siRNA, confocal microscopy, 5 μM peptide) | fluorescence intensity / binding with HT29 knockdown cells (cMet [7]; HT29 transfected with sicMet-targeting siRNA, confocal microscopy) | binding to surface of S114 cells (cMet+) (cMet [8]) | signal / binding to NIH3T3 cells (cMet−) (cMet [8])
QQTNWSL [QQT*] | strong band | decrease significantly; also recorded: significant decrease | no competition | no change in phosphorylation |  |  |  |  |  |  |  |  |  |  |  |  | 
TLQ*-Cy5.5: scrambled control sequence TLQWNQS (SEQ ID NO:3) labeled with Cy5.5 via GGGSK linker (TLQWNQSGGGS-{K(Cy5.5)-NH2}) |  |  |  |  | little signal; also recorded: minimal signal | minimal signal | minimal signal; also recorded: little signal | little signal; also recorded: minimal signal | little signal; also recorded: minimal signal | 0.85 | minimal binding | little binding | 0.96 | minimal binding | little signal; also recorded: little binding | minimal binding | little binding
TLQWNQS (Artificial Seuqence) [TLQ*] |  | no significant change |  |  |  |  |  |  |  |  |  |  |  |  |  |  | 
